Results as given in patent US20100303887A1, “DHA and PEDF, a Therapeutic Composition for Nerve and Retinal Pigment Epithelial Cells” (priority 2007, published 2010).

Experiments:
[1] = test system: NPD1 synthesis; test: NPD1 synthesis and release from polarized primary human RPE cell monolayers (lipidomic analysis); assay type: cell-based; conditions: 72 hr
Protocol: Human RPE cells. Cultures of retinal pigment epithelial (RPE) cells were prepared. RPE cells were seeded onto Millicell-HA culture plate inserts (Millipore, Bradford, Mass.), placed in 24-well plates, and allowed to reach confluence. Consent for use of tissue for research was obtained in compliance with Federal and State law and institutional regulations. Cultures were maintained in Chee's essential replacement medium until the experiments were performed as described in J. Hu and D. Bok (2001) Mol Vis 7:14-19. The medium includes Eagle's minimal essential medium with calcium (MEM, Irvine Scientific, Irvine, Calif.), 1% heat-inactivated calf serum (JRH Bioscience, Lennexo, Kans.), amino acid supplements, and 1% bovine retinal extract. The Millicell-HA filter inserts allow separate manipulation of the culture media bathing the apical and basal surfaces of the RPE monolayer and measurement of the transepithelial resistance (TER), which provides a measure of cell differentiation and confluency. Cultures were used for experiments once they developed a TER of at least 400 Ω·cm^2, as measured by an Epithelial Volt-ohmmeter (EVOM, World Precision Instruments, New Haven, Conn.).
Exposure of RPE cells to growth factors. […] […] The lower chamber was filled with 500 μl media (bathing the basal cell monolayer surface) containing 0.1% HSA. Cells were incubated for 72 hours, then apical and basal media were removed and collected for analysis. After allowing the cells to rest for at least 72 hours on fresh media, the experiments were repeated.
Lipidomic analysis. Human RPE primary cell cultures or ARPE-19 cells were separated from culture media and washed with 1 ml PBS. After addition of 1 ml methanol, cells were scraped from plates or millicell membranes and collected for lipid extraction. Media was spun-down to separate cell debris, then 350 μl were collected in 1 ml of cold chloroform:methanol (1:1). Protein precipitates were then separated by centrifugation at 1500×g (5 min, 4° C.). Lipid extracts were collected, and kept under nitrogen at −80° C. until solid-phase purification; extracts were pre-equilibrated at pH 3.0 in 10% methanol/water, then loaded to 500 mg C18 columns (Varian, Inc., Palo Alto, Calif.), and eluted with 1% methanol/ethyl acetate. Eluates were concentrated on a N2 stream evaporator. Samples were loaded to a liquid chromatograph-tandem mass spectrometer (LC-TSQ Quantum, Thermo-Finnigan; Thermo Fisher Scientific, Waltham, Mass.) installed with a Biobasic-AX column (Thermo-Hypersil-Keystone, Thermo Fisher Scientific, Waltham, Mass.) (100 mm\2.1 mm, 5-μm particle sizes), and eluted in a linear gradient [100% solution A (40:60:0.01 methanol/water/acetic acid pH 4.5) to 100% solution B (99.99:0.01 methanol/acetic acid)], at a flow rate of 300 μl/min for 30 minutes. LC effluents were diverted to an electro-spray-ionization probe (ESI) on a TSQ Quantum (Thermo-Finnigan, Thermo Fisher Scientific, Waltham, Mass.) triple quadrupole mass spectrometer. NPD1 and resolving D1 were obtained by biogenic synthesis as described in N. G. Bazan, D. L. Birkle, and T. S. Reddy (1984) Biochem Biophys Res Commun. 125:741-74, and V. L. Marcheselli et al. (2003) J. Biol. Chem. 278:43807-43817. Erratum in: (2003) J Biol Chem 278:51974. Other lipid standards (Cayman Chem. Ann Arbor, Mich.) were used for tuning and optimization and to create calibration curves. The instrument was set on full-scan mode, to detect parent ions, and selected reaction mode (SRM) for quantitative analysis, to detect product ions, simultaneously. The selected parent/product ions (m/z) and collision energy (v) obtained by running on negative ion detection mode were: 359.2/153.1/20 for NPD1, 343.2/281.2/18 for resolving D1, 351.2/195.0/22 for 20HO-LTB4 (used as internal standard), 327.2/283.3/16 for DHA, 311.3/267.3/20 Arachidonic Acid-d8 (used as internal standard, IS).
Neurotrophins activated NPD1 synthesis in cultured primary human RPE cells. […]

[2] = test system: NPD1 synthesis; test: NPD1 synthesis in cultured ARPE-19 cells (lipidomic analysis); assay type: cell-based, human; conditions: serum starvation/H2O2/TNFα oxidative stress for the combination
Protocol: (§1) Exposure of ARPE-19 cells to growth factors. Cells at 75-80% confluence (72 hr growth in DMEM/F12+10% FBS) were serum-starved for 2 hr before exposure to growth factors. The serum-starved cells were treated with TNF-α (Sigma-Aldrich Corporation, St. Louis, Mo.) (10 ng/ml) and H2O2 (600 μM) to induce oxidative stress and challenged with increasing concentrations (10, 30, 50 nM) and PEDF (Chemicon International, Temecula, Calif.) (50 ng/ml) simultaneously with oxidative stress for 4 hr before harvesting for protein analysis. Cell extracts were made and protein concentrations were adjusted by Bio-Rad protein reagent and used for Western-blot analysis. To study neuroprotection by DHA and PEDF in the oxidative stress-induced ARPE-19 cells, 72 hr cells were serum-starved for 8 hr before the introduction of oxidative stress and challenged with DHA and PEDF for 15 hr. Cells were analyzed to detect Hoechst-positive apoptotic cells.
Lipidomic analysis. Human RPE primary cell cultures or ARPE-19 cells were separated from culture media and washed with 1 ml PBS. After addition of 1 ml methanol, cells were scraped from plates or millicell membranes and collected for lipid extraction. […] The instrument was set on full-scan mode, to detect parent ions, and selected reaction mode (SRM) for quantitative analysis, to detect product ions, simultaneously. […]

[3] = test system: Bcl-2 and Bfl-1; test: Anti-apoptotic protein expression in ARPE-19 cells under serum starvation/H2O2/TNFα oxidative stress (Western blot); assay type: cell-based, human; conditions: DHA 10 to 50 nM, with or without PEDF
Protocol: as §1, with “To study neuroprotection by DHA and PEDF in the oxidative stress-induced ARPE-19 cells, 72 hr cells were serum-starved for 8 hr before the introduction of oxidative stress and challenged with DHA and PEDF for 15 hr.” left out
(§2) Analysis of Bcl-2 and caspase-3 cleavage. Bcl-2 protein and caspase-3 cleavage were analyzed by Western-blot analysis. […] The membranes were probed with primary antibodies against Bcl-2 (Santa Cruz Biotechnology, Inc., Santa Cruz, Calif.) and cleaved caspase-3 (Asp-175) (Cell Signaling) at room temperature and treated for 20 minutes with the secondary antibody, goat anti-rabbit IgG: horseradish peroxidase, and horseradish peroxidase-conjugated anti-biotin antibody, then proteins were detected by using an ECL kit (Amersham Biosciences, Buckinghamshire, United Kingdom). […]

[4] = test system: Bid, Bax, and Bad; test: Pro-apoptotic protein expression in ARPE-19 cells under serum starvation/H2O2/TNFα oxidative stress (Western blot); assay type: cell-based, human; conditions: DHA 10 to 50 nM, with or without PEDF
Protocol: as §1, with “To study neuroprotection by DHA and PEDF in the oxidative stress-induced ARPE-19 cells, 72 hr cells were serum-starved for 8 hr before the introduction of oxidative stress and challenged with DHA and PEDF for 15 hr.” left out
as §2

B1: PEDF: pigment epithelium-derived factor, a member of the serine protease inhibitor (serpin) family (protein, UniProt P36955 20-418, looked up)
Pigment epithelium-derived …: QNPASPPEEGSPDPDSTGALVEEEDPFFKVPVNKLAAAVSNFGYDLYRVRSSTSPTTNVLLSPLSVATALSALSLGAEQRTESIIHRALYYDLISSPDIHGTYKELLDTVTAPQKNLKSASRIVFEKKLRIKSSFVAPLEKSYGTRPRVLTGNPRLDLQEINNWVQAQMKGKLARSTKEIPDEISILLLGVAHFKGQWVTKFDSRKTSLEDFYLDEERTVRVPMMSDPKAVLRYGLDSDLSCKIAQLPLTGSMSIIFFLPLKVTQNLTLIEESLTSEFIHDIDRELKTVQAVLTVPKLKLSYEGEVTKSLQEMKLQSLFDSPDFSKITGKPIKLTQVEHRAGFEWNEDGAGTTPSPGLQPAHLTFPLDYHLNQPFIFVLRDTDTGALLFIGKILDPRGP
NPD1 synthesis and release through the apical surface ([1]; growth factors 20 ng/ml added to apical medium): by far the most potent stimulator of NPD1 synthesis | NPD1 release, neurotrophin added to the apical medium ([1]; increasing concentrations): concentration-dependent increases in NPD1 release only on the apical side | NPD1 release, neurotrophin added to the basal medium ([1]; increasing concentrations): much less NPD1 release on the apical side | NPD1 synthesis in ARPE-19 cells [2]: up-regulate NPD1 synthesis | Bcl-2 and Bfl-1 anti-apoptotic protein expression [3]: unable to alter the expression of pro- and anti-apoptotic proteins | Bid, Bax and Bad pro-apoptotic protein expression [4]: unable to alter the expression of pro- and anti-apoptotic proteins
